Test results reported in patent publication WO2018134681A1 (dated 2018).

What was measured:
human TGF-β1 [1] = biological target: T1, human TGF-β1 (human, UniProt P01137 279-390); assay: cell-based or functional assay
human TGF-β1 [2] = biological target: T1, human TGF-β1; assay: SPR, Biacore T200, TGF-β homodimer immobilized on CM5 chip, Ab1 injected, 1:1 model
human TGF-β2 = biological target: T2, human TGF-β2 (human, UniProt P61812 21-414); assay: as above
T2 chain: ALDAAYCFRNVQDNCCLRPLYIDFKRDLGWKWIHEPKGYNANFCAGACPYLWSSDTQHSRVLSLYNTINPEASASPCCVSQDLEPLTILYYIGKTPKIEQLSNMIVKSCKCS

[3] = biological target: T3, murine TGF-β1 (identical in amino acid sequence to rat TGF-β1) (mouse, UniProt P04202 279-390); assay: as above
T3 construct: mature; also called Murine and Rat TGF-βΙ; murine/rat TGF-β1
T3 sequence (P04202 279-390 limits assumed): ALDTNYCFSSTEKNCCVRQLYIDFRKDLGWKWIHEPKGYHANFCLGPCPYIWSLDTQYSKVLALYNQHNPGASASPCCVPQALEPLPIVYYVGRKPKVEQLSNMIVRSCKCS

T1 sequence (P01137 279-390 limits assumed): as the sequence (P04202 279-390 limits assumed) above, with S75A counted along it

- NFAT-driven luciferase activity, fold change against isotype control Ab (human TGF-β1 [1]): 1.45 fold change
- NFAT-driven luciferase activity, fold change against no Ab control (human TGF-β1 [1]): 1.45 fold change
- Kd (human TGF-β1 [2]): 1.48 nM
- Kd (human TGF-β2): 3 nM
- Kd [3]: 2.8 nM
B1: Ab1 (antibody, human IgG4 S228P, kappa)
heavy: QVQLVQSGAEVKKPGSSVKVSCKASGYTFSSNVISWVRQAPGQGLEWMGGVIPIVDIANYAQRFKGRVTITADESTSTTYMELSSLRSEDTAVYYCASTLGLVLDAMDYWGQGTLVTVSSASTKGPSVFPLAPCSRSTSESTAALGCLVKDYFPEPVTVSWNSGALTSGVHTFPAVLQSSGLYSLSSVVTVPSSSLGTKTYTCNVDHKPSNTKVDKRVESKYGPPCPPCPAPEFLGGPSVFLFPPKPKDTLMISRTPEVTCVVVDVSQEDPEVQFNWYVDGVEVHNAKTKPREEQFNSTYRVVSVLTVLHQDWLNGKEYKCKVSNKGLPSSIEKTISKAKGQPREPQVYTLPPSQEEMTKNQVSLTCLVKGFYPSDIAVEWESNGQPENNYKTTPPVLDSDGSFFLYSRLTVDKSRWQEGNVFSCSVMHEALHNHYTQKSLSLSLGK
light: ETVLTQSPGTLSLSPGERATLSCRASQSLGSSYLAWYQQKPGQAPRLLIYGASSRAPGIPDRFSGSGSGTDFTLTISRLEPEDFAVYYCQQYADSPITFGQGTRLEIKRTVAAPSVFIFPPSDEQLKSGTASVVCLLNNFYPREAKVQWKVDNALQSGNSQESVTEQDSKDSTYSLSSTLTLSKADYEKHKVYACEVTHQGLSSPVTKSFNRGEC
notes: also called anti-TGF-β antibody Ab1; pan-TGF-β antibody
